Experimental findings from publication PMC6698748 are described below.

Assay [1] addresses MtsR (wild type, recombinant, untagged) (Streptococcus pyogenes (group A streptococcus), strain MGAS10870, serotype M3). Kind of assay: SEC. For orientation: In gel filtration, larger molecules generally elute earlier.
Assay [2] addresses MtsR F187A (Streptococcus pyogenes (group A streptococcus), strain MGAS10870, serotype M3). As to the kind of experiment: SEC.

Broadly, the stoichiometry N is a count of units in the complex or per binding partner.

Regarding “MtsR (wild type, recombinant, untagged) (natural protein)”, the stoichiometry N in assay [1] turned out to be 2.

For MtsR F187A (natural protein), the stoichiometry N in assay [2] is 2.
